Data set [1] concerns the molecule itself. Nature of the data set: SEC.
Data set [2] concerns the molecule itself. In words: SEC. This is another data set of the same source. A general note: SEC sorts molecules by how far they enter the pores of the column.

Read-outs that look alike come from different tables or passages of the source.

B1: HA-R399E (HA-tagged PKM2 mutant R399E expressed in SW480 cells) (enzyme)
chain: not shown
B1: the “stoichiometry N” value in data set [1] stood at 2.

B2: Recombinant PKM2 mutant R399E (enzyme)
chain: not shown
On to B2, for which the “stoichiometry N” value in data set [2] was determined as 2.

What is called stoichiometry N is a count of units in the complex or per binding partner.

(Values after paper PMC3299833 (Molecular Cell, 2012).)
